Assay results taken from the supplement of paper PMC9170038.

Each sequence was assayed on MS2 coat protein (assay: apparent KD of MS2 coat protein; higher = weaker reporter binding). Conditions: Eterna round: R107; input ligand: arginine 13.2 mM.
Summary of the method: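 Apparent KD stands for the median, per design, of fits to normalised cluster binding curves. The curves came from titrating on-chip-transcribed RNA switches on Illumina sequencing clusters with SNAP-549-labelled MS2 coat protein, twofold from 0.7 or 1.5 nM to 3 µM. Buffer was 100 mM Tris-HCl pH 7.5, 80 mM KCl, 4 mM MgCl2, without or with constant ligand.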

Sequence | apparent KD of MS2 coat protein [nM]
GGGUGGUAGGCGGCCGCCACUGAUUUUCAUAUAUAUAUAACAUGAGGAUCACCCAUGUAGAUAUGCAGGACCGGGCCUGUUGUUU [aaaL] | 26.6
UGUCAUGGAAACAUGACAGGUCUUACCGGUCGAGGACCGGUACGGCCGCCACUCGAUUGGUGGCACAUGAGGAUCACCCAUGUUA [SS Tryp A #16] | 21.8

Same assay, conditions: Eterna round: R107; input ligand: none

Sequence | apparent KD of MS2 coat protein [nM]
CGAUCCUGCAGGGAUACCAGCGCCGCUUGAUAACUGUGCACAUGAGGAUCACCCAUGUAGCGCCCUUGGCAGCCCAGCUAGAGGG [Same State Theophylline B GF25] | 15
UCGCCCAGGAAGGAUUCCUGGGAUAUGGAAGGAGCGCUGAUGCCAGCAGGUAGGUCGCCAACGGACAUGAGGAUCACCCAUGUAC [Same State - Arginine A (Freestyle 8)] | 19.9
AAUAAACAUGAGGAUCACCCAUGUAUGGAAGGAGCGGUAAAUAAACCAGGUAGGUCGCCAGUGUGAGGGUCAUCUAUGUAAUAAA [Exclusion - Arginine A (Freestyle 1)] | 32
UUUUUCGUAGGUUAUAGUUUAGAAACUGAAGGAGCGUGGUAAUACACAGGUAGGUCGCAGAUUUUACAUGAGGAUCACCCAUGUU [JR_ExcArginiA_Sub013] | 24.1
GGACUAACCAGAAGGAGCGGCACGCAGAAACUGCAAUUUCCUCCGCACGAGGAUCACCCGUGUCAGGUAGGUCGCUGGUUAGUCG | 20.4
CGGUUUGUGAUGGAUACCAGCAGAGUGGCUGUUUAUCCUGACAUGAGGAUCACCCAUGUGUGCCCUUGGCAGCUGUUGUGGGCUG [8.aB] | 86.8
UGUGUAAUUGUCUGGUAGAAUUAUUUGUUUCGAGGACCGGUACGGCCGCCACUCGAUAUUUACAUGAGGAUCACCCAUGUUAGCU [JR_SSTryptoA_Sub004] | 14
AAACAGUCGGACAUGAGGAUCACCCAUGUGCGAGGACCGGUACGGCCGCCACUCGACAAGGGCGGUCCCGAAGCAAACAUACGCG [Enedquceor] | 16.5
UGUUUCGCGGGCGAUACCAGCUUGAUCGUACUGGCCUGGUACAUGAGGAUCACCCAUGUAAGCCCUUGGCAGCGCGCGCGAGACG [#1 Exclusion - Theophylline B Attempt #3 (HarryS)] | 13.5
GGUGGCGGGACUGAUACCAGCCACCACCGAUAGACCACAUGAGGAUCACCCAUGUUGGGUGGCCCUUGGCAGCAGUCUUGCUGCC [#1 Same State - Theophylline B Attempt #12 (HarryS)] | 206
AGUAUCAGUGGAAGGAGCGUCGCGAAUGCCACAUGAGGAUCACCCAUGUCGCCUUGAGCGCGACAGGUAGGUCGCCACGGUAGGC [SS-ArgB3] | 208
CGUCGAGACUGAAGGAGCGAGAUAACAACAUUGGGUCUCAACAUGAGGAUCACCCAUGUAUCUCAGGUAGGUCGCGGUGUCACCG [Exclusion Arginine B GF20] | 330
AACAUGAGGAUCACCCAUGUGUCCUCGAAACGAGGACCGGUACGGCCGCCACUCGAAAAGGUGUUGACGAAAAGUCAGCACCAAA [Mat - Exclusion - Trytophan A - D16] | 264
UCGCUCUGGGUGGGAUCCGGAGAUGUGGAAGGAGCGCUGGUAACAGCAGGUAGGUCGCCAACGGACAUGAGGAUCACCCAUGUAC [Same State - Arginine A (Freestyle 17)] | 37.3
UGACAUUGCUCAGAUACCAGACAUGAGCAUCAGCCAUGUGCCAACAAGUACAAAAUAAAUGUCCCUUGGCAGCUGAGCAAUGUCU [TheoBX 23 #MS2Left #AlternativeMS2 #Theo22] | 10.9
UACAUGAGGAUCACCCAUGUGUAGAGGGAUACCAGUGACAGUAAGCGCCCUUGGCAGCCCGUGAACAAUGGGUGAGCUAAAUAGU [#18 Exclusion-TheophyllineA] | 37.9

Same assay, conditions: Eterna round: R107; input ligand: theophylline 20 uM

Sequence | apparent KD of MS2 coat protein [nM]
CGAUCCUGCAGGGAUACCAGCGCCGCUUGAUAACUGUGCACAUGAGGAUCACCCAUGUAGCGCCCUUGGCAGCCCAGCUAGAGGG [Same State Theophylline B GF25] | 29.2
UGACAUUGCUCAGAUACCAGACAUGAGGAUCACCCAUGUACCAAGAAAACGUACAUAAAUGUCCCUUGGCAGCUGAGCAAUGUCU [TheoBX 10 #MS2Left #Theo2] | 535
GAUAGUUGAUGGGAUACCAGCGUGCACAUGAGGAUCACCCAUGUGGUUCGUGUACGACGGCGCCCUUGGCAGCCCAUAUUGUGUA [#13 Same State - Theophylline B] | 116
GCAAUAACGAUUGAUACCAGCAUGUUAACAUGAGGAUCACCCAUGUUAAGGAUAACAUAAUGCCCUUGGCAGCAACGGAAAGCCG [Ac] | 22.9
AGCUACUCGUUCCUCAUGUACGAGUGGCAACGAGGACCGGUACGGCCGCCACUCGAAUAAACAUGAGGAUCACCCAUGUACAAAU [T''-M-T'-T-MS2 - Design 8] | 168
GCAGACAUGAGGAUCACCCAUGUACUUGGGCGAGGACCGGUACGGCCGCCACUCGUAGACUUGACGAGGAAAUGUUCUCGCAGGG [theeternabot_sameState_MS2_Trp_A_24] | 31.6
GGUUACUCUACGGCCGCCACUGAAAAGUAAAUAUUAAUGUACAUGACAUGAGGAUCACCCAUGUACAGGACCGGGUAGUGUAACC [Tryptophan B 13] | 102
UCGCCCAGGAAGGAUUCCUGGGAUAUGGAAGGAGCGCUGAUGCCAGCAGGUAGGUCGCCAACGGACAUGAGGAUCACCCAUGUAC [Same State - Arginine A (Freestyle 8)] | 22.7
AAUAAACAUGAGGAUCACCCAUGUAUGGAAGGAGCGGUAAAUAAACCAGGUAGGUCGCCAGUGUGAGGGUCAUCUAUGUAAUAAA [Exclusion - Arginine A (Freestyle 1)] | 53.6
AGCGACAUGCGUGAUACCAGCUACAUGAGGAUCACCCAUGUCAGCAGGAAACUGCUGUGUAGCCCUUGGCAGCACAGUGCAUGUC [Exclusion - Theophylline B (Freestyle 28)] | 18.1
AUGUCACAUGAGGAUCACCCAUGUAUGGAUACCAGUUUAGUGAAUAACCCUUGGCAGCCAAGGAUGCGACAGAAAUCCGGAAAAC [theeternabot_sameState_MS2_Theo_A_22] | 26.6
UUUUUCGUAGGUUAUAGUUUAGAAACUGAAGGAGCGUGGUAAUACACAGGUAGGUCGCAGAUUUUACAUGAGGAUCACCCAUGUU [JR_ExcArginiA_Sub013] | 27.6
GGACUAACCAGAAGGAGCGGCACGCAGAAACUGCAAUUUCCUCCGCACGAGGAUCACCCGUGUCAGGUAGGUCGCUGGUUAGUCG | 27.5
CGGUUUGUGAUGGAUACCAGCAGAGUGGCUGUUUAUCCUGACAUGAGGAUCACCCAUGUGUGCCCUUGGCAGCUGUUGUGGGCUG [8.aB] | 137
GAUGAACUAUUUGAUACCAGACAACAUGAGGAUCACCCAUGUGCGCGUCGUCCUCUGCCUGUCCCUUGGCAGCAAAUAGUUUAUC [XTheo B #10] | 81.8
UAUAUAUUGAUGGAUACCAGCAGAGAAAACGUUUAUCCUAACAUGAGGAUCACCCAUGUAUGCCCUUGGCAGCUGUUGAUAUAUA [8.K] | 28.7
GAGAGAGGAGUGCGGCGUGUUCCGCUCCGUCGAGGACCGGUACGGCCGCCACUCGACAUGAGGAUCACCCAUGUCCUCUCUCGCG [#1 Exclusion - Tryptophan A Attempt #4 (HarryS)] | 102
GUUAUAUACUCGGCCGCCACUGAGAGAGUCAUGUAAACAUGAGGAUCACCCAUGUAAUAUAUAUACAGGACCGGGAGUAUAGUAA [4.D] | 22
